According to US10400030B2:

Molecular target: IL-17RA Fc fusion protein (human) (UniProt Q96F46)
Assay: BIAcore T200, IL-17RA Fc fusion captured on protein G surface, single-cycle kinetics

fold improved affinity against clone 2.1: 5 fold
B1: clone 2.2 VH (VHH)
VHH: QVQLVQSGAEVKKPGASVKVSCKASGYPFTSYDINWVRQATGRSLEWMGWMNPTNGNTVYAQKFQDRVTMTRNTSISTAYMELSSLRSEDTAVYFCARGRRDDWKNNYWGQGTLVTVSS
